Assay results taken from patent US20130230540A1 (DOMANTIS, published 2013).

How the values were obtained:
[1] = biological target: T1, recombinant human CD28/Fc Chimera (R&D Systems) (human, UniProt P10747 19-152); assay: SPR (BIAcore), CM5 chip coated with 12500 RU CD28-Fc; dAb injected at 57.5 µM
T1 construct: Bought reagent (R&D Systems, Abingdon, UK); not shown: Fc portion of the bought chimera
Text: (§1) All 58 clones were expressed and purified and tested on the BIAcore against a CM5 chip coated with 12500 RU (response units) of CD28-Fc. […] The protein concentrations used for BIAcore analysis were: […]

[2] = biological target: T1, recombinant human CD28/Fc Chimera (R&D …); assay: SPR (BIAcore), CM5 chip coated with 12500 RU CD28-Fc; dAb injected at 13.8 µM
Text: as §1

[3] = biological target: T1, recombinant human CD28/Fc Chimera (R&D …); assay: SPR (BIAcore), CM5 chip coated with 12500 RU CD28-Fc; dAb injected at 19.4 µM
Text: as §1

[4] = biological target: T1, recombinant human CD28/Fc Chimera (R&D …); assay: SPR (BIAcore), CM5 chip coated with 12500 RU CD28-Fc; dAb injected at 14.7 µM
Text: as §1

[5] = biological target: T1, recombinant human CD28/Fc Chimera (R&D …); assay: SPR (BIAcore), CM5 chip coated with 12500 RU CD28-Fc; dAb injected at 42.3 µM
Text: as §1

[6] = biological target: T1, recombinant human CD28/Fc Chimera (R&D …); assay: SPR (BIAcore), CM5 chip coated with 12500 RU CD28-Fc; dAb injected at 16.6 µM
Text: as §1

[7] = biological target: T1, recombinant human CD28/Fc Chimera (R&D …); assay: SPR (BIAcore), CM5 chip coated with 12500 RU CD28-Fc; dAb injected at 68.1 µM
Text: as §1

[8] = biological target: T1, recombinant human CD28/Fc Chimera (R&D …); assay: SPR (BIAcore), CM5 chip coated with 12500 RU of CD28-Fc, purified dAb, concentration not given
Text: as §1

B1: DOM21-20 (other)
VH: EVQLLESGGGLVQPGGSLRLSCAASGFTFPAYSMIWVRQAPGKGLEWVSTISPLGYSTYYADSVKGRFTISRDNSKNTLYLQMNSLRAEDTAVYYCAEQTAYLNRATEHFDYWGQGTLVTVSS
notes: Human VH antibody single variable domain (dAb), expressed from pDOM5 and purified
B1: binds [1].

B2: DOM21-18 (other)
VL: DIQMTQSPSSLSASVGDRVTITCRASQYIGTSLNWYQQKPGKAPKLLTYQASLLQSGVPSRFSGSGSGTDFTLTISSLQPEDFATYYCQQLALRPMTFGQGTKVEIKR
notes: Human Vkappa antibody single variable domain (dAb), DPK9/Jk1 framework, expressed from pDOM5 and purified
B2: binds [2].

B3: DOM21-22 (other)
VH: EVQLLESGGGLVQPGGSLRLSCAASGFTFELYQMGWVRQAPGKGLEWVSTIMPSGNLTYYADSVKGRFTISRDNSKNTLYLQMNSLRAEDTAVYYCAKMWSLNLGFHAAFDYWGQGTLVTVSS
notes: as for B1
B3: binds [3].

B4: DOM21-27 (other)
VL: DIQMTQSPSSLSASVGDRVTITCRASQSIGTGLRWYQQKPGKAPMLLIYRASILQSGVPSRFSGSGSGTDFTLTISSLQPEDFATYYCQQTTLQPFTFSQGTKVEIKR
notes: Human Vkappa antibody single variable domain (dAb), expressed from pDOM5 and purified
B4: binds [4].

B5: DOM21-4 (other)
VH: EVQLLESGGGLVQPGGSLRLSCAASGFTFSRYHMAWVRQAPGKGLEWVSVIDSLGLQTYYADSVKGRFTISRDNSKNTLYLQMNSLRAEDTAVYYCAEYGGAFDYWGQGTLVTVSS
notes: Human VH antibody single variable domain (dAb), DP47/JH4b framework, expressed from pDOM5 and purified
B5: binds [5].

B6: DOM21-28 (other)
VL: DIQMTQSPSSLSASVGDRVTITCRASQSISHSLVWYQQKPGKAPKLLIYWASLLQSGVPSRFSGSGSGTDFTLTISSLQPEDFATYYCQQGMTTPFTFGQGTKVEIKR
notes: as for B4
B6: binds [6].

B7: DOM21-6 (other)
VH: EVQLLESGGGLVQPGGSLRLSCAASGFTFENYGMAWVRQAPGKGLEWVSNIGRAGSVTYYADSVKGRFTISRDNSKNTLYLQMNSLRAEDTAVYYCAKVQSWRTFDYWGQGTLVTVSS
notes: as for B1
B7: binds [7].

B8: DOM21-38 (other)
VH: EVQLLESGGGLVQPGGSLRLSCAASGFTFILYDMQWVRQAPGKGLEWVSRISANGHDTYYADSVKGRFTISRDNSKNTLYLQMNSLRAEDTAVYYCAKGPHYLFDYWGQGTLVTVSS
notes: as for B1
B8: binds [8].

B9: DOM21-44 (other)
VH: EVQLLESGGGLVQPGGSLRLSCAASGFTFARYTMVWVRQAPGKGLEWVSAIHFDGRTTYYADSVKGRFTISRDNSKNTLYLQMNSLRAEDTAVYYCAKNEWASLKHFDYWGQGTLVTVSS
notes: as for B1
B9: binds [8].
